From patent US7053179 (WHITEHEAD INSTITUTE FOR BIOMEDICAL RESEARCH, dated 2006)

Target: gp160 (precursor protein to gp120/gp41) expressed on CHO cells (HIV (strain ))
Test: cell-based or functional assay

## GGHTTWMEWDREINNYTSLIHSLIEESQNQQEKNEQELLGGHHHHHH [His-tagged C-peptide C37-H6]
  IC50 in the cell-cell fusion assay: ~1 nM
